Measurements reported in paper PMC12990809.

Experiments:
Test in all cases: pulldown
RBM45 (Homo sapiens) = target: T1, RBM45 (Homo sapiens) (UniProt Q8IUH3); conditions: 20 nM protein, 1.5 uM RNA pool; 20 mM HEPES pH 7.8, 70 mM KCl, 10 mM NaCl, 10% glycerol, 2 mM DTT, 0.1 ug/uL BSA; 30 min, 4 C
T1 sequence: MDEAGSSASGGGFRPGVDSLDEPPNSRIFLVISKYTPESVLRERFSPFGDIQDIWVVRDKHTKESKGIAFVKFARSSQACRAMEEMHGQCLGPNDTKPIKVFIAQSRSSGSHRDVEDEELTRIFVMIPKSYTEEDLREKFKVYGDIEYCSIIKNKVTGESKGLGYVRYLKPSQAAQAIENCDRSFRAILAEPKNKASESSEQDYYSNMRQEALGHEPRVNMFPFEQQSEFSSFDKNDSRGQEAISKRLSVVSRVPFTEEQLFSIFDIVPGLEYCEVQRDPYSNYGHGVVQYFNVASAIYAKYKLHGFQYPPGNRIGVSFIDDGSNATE

[1] = target: T2, T07F10.3 (Caenorhabditis elegans) (UniProt Q22318); conditions: 20 nM protein, 1.5 uM RNA pool; 20 mM HEPES pH 7.8, 70 mM KCl, 10 mM NaCl, 10% glycerol, 2 mM DTT, 0.1 ug/uL BSA; 30 min, 4 C
T2 sequence: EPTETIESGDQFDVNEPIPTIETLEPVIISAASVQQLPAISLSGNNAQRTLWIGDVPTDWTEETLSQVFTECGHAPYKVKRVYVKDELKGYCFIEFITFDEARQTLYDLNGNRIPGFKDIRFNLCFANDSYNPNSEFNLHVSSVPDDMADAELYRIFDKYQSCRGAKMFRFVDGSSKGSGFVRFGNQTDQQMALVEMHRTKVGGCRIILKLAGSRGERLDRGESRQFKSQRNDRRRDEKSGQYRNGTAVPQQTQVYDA

LIN28A (Homo sapiens) = target: T3, LIN28A (Homo sapiens) (UniProt Q9H9Z2); conditions: 20 nM protein, 1.5 uM RNA pool; 20 mM HEPES pH 7.8, 70 mM KCl, 10 mM NaCl, 10% glycerol, 2 mM DTT, 0.1 ug/uL BSA; 30 min, 4 C (protocol of this paper; not …); cited from earlier work
T3 sequence: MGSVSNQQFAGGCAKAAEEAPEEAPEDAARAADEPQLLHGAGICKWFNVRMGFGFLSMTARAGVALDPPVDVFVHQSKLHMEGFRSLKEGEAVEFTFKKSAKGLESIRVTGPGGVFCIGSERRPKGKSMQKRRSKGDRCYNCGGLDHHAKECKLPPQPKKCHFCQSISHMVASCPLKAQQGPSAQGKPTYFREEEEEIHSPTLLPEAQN

[2] = target: T4, tdp-1 (Caenorhabditis elegans) (UniProt D0VWM8); conditions: 20 nM protein, 1.5 uM RNA pool; 20 mM HEPES pH 7.8, 70 mM KCl, 10 mM NaCl, 10% glycerol, 2 mM DTT, 0.1 ug/uL BSA; 30 min, 4 C
T4 sequence: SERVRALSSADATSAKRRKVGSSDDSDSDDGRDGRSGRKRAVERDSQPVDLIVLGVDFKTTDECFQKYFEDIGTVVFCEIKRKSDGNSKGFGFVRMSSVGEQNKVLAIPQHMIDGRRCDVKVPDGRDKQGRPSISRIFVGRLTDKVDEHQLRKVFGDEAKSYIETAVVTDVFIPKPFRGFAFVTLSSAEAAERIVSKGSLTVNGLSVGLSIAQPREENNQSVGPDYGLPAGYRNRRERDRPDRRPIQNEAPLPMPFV

[3] = target: T5, rsp-1 (Caenorhabditis elegans) (UniProt Q23121); conditions: 20 nM protein, 1.5 uM RNA pool; 20 mM HEPES pH 7.8, 70 mM KCl, 10 mM NaCl, 10% glycerol, 2 mM DTT, 0.1 ug/uL BSA; 30 min, 4 C
T5 sequence: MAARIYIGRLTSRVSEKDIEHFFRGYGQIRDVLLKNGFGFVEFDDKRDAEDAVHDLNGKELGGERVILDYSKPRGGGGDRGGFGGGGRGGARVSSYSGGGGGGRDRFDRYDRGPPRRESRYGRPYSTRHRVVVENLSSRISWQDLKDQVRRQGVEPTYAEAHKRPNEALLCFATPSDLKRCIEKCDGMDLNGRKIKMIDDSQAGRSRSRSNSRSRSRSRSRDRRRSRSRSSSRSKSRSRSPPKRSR

[4] = target: T6, U2B'' (Arabidopsis thaliana) (UniProt O22922); conditions: 20 nM protein, 1.5 uM RNA pool; 20 mM HEPES pH 7.8, 70 mM KCl, 10 mM NaCl, 10% glycerol, 2 mM DTT, 0.1 ug/uL BSA; 30 min, 4 C
T6 sequence: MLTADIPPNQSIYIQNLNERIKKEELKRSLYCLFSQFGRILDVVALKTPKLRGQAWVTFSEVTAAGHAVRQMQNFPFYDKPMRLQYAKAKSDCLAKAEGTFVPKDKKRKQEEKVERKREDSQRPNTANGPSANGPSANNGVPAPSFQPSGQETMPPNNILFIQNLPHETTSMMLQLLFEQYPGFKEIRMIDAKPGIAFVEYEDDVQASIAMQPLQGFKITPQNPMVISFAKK

TRNAU1AP (Homo sapiens) = target: T7, TRNAU1AP (Homo sapiens) (UniProt Q9NX07); conditions: 20 nM protein, 1.5 uM RNA pool; 20 mM HEPES pH 7.8, 70 mM KCl, 10 mM NaCl, 10% glycerol, 2 mM DTT, 0.1 ug/uL BSA; 30 min, 4 C
T7 sequence: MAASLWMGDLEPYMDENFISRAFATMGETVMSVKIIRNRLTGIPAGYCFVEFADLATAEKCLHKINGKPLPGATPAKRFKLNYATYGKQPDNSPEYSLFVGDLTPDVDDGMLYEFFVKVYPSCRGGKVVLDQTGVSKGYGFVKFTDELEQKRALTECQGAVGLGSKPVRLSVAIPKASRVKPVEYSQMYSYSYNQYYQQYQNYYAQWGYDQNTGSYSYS

[5] = target: T8, cpb-2 (Caenorhabditis elegans) (UniProt Q18317); conditions: 20 nM protein, 1.5 uM RNA pool; 20 mM HEPES pH 7.8, 70 mM KCl, 10 mM NaCl, 10% glycerol, 2 mM DTT, 0.1 ug/uL BSA; 30 min, 4 C
T8 sequence: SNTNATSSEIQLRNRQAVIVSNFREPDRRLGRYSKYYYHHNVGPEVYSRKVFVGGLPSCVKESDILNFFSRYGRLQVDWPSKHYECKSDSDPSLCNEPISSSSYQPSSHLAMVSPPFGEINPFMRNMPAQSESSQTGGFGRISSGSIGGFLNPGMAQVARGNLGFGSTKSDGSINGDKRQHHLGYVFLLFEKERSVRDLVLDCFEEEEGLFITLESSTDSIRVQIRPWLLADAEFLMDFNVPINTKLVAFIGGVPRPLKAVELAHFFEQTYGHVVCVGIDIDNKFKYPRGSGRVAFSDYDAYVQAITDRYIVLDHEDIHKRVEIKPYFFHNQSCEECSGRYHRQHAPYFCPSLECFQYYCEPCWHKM

[6] = target: T9, PFE0865c (Plasmodium falciparum) (UniProt Q8I3T5); conditions: 20 nM protein, 1.5 uM RNA pool; 20 mM HEPES pH 7.8, 70 mM KCl, 10 mM NaCl, 10% glycerol, 2 mM DTT, 0.1 ug/uL BSA; 30 min, 4 C
T9 sequence: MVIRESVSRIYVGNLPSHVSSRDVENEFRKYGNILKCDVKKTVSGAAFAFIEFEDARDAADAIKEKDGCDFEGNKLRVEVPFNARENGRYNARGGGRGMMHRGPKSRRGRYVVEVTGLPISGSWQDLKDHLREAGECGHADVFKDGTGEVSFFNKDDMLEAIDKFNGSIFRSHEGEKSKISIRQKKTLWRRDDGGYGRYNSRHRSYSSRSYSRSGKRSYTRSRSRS

GACAGA [RNAcompete motif RNCMPT00805]
binding signal (z-score (mean of top ten 7-mers)) (RBM45 (Homo sapiens)): 12.2

AUAAUAA [RNAcompete motif RNCMPT00821]
binding signal (z-score (mean of top ten 7-mers)) [1]: 8.08

CGGAGG [RNAcompete motif RNCMPT00162]
binding signal (z-score (mean of top ten 7-mers)) (LIN28A (Homo sapiens)): 6.24

GAGAGA [RNAcompete motif RNCMPT00816]
binding signal (z-score (mean of top ten 7-mers)) [2]: 11.6

GGAGGAG [RNAcompete motif RNCMPT00801]
binding signal (z-score (mean of top ten 7-mers)) [3]: 9.02

UUGCACA [RNAcompete motif RNCMPT01660]
binding signal (z-score (mean of top ten 7-mers)) [4]: 14.2

AAUUU [RNAcompete motif RNCMPT00813]
binding signal (z-score (mean of top ten 7-mers)) (TRNAU1AP (Homo sapiens)): 7.72

UUUNUA [RNAcompete motif RNCMPT00794]
binding signal (z-score (mean of top ten 7-mers)) [5]: 14.9

GAUGAAC [RNAcompete motif RNCMPT00800]
binding signal (z-score (mean of top ten 7-mers)) [6]: 6.53
